Measured values as given in US20250051473A1 (IGM BIOSCIENCES, published 2025).

T1: mouse CD38 (ACROBiosystems, CD8-M5223) (mouse, UniProt P56528 45-304)
T1 construct: Bought recombinant protein, coated on the ELISA plate
T1 sequence (looked up): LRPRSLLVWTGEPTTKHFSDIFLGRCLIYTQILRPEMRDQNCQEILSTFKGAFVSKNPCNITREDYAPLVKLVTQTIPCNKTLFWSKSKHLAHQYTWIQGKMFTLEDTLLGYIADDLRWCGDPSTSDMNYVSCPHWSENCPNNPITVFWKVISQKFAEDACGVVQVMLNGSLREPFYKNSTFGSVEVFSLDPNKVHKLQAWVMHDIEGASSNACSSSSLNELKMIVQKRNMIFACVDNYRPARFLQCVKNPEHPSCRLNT

T2: human CD157 protein (SinoBiological, 10060-H08H) (human, UniProt Q10588 33-292)
T2 construct: Bought recombinant protein, coated on the ELISA plate
T2 sequence (looked up): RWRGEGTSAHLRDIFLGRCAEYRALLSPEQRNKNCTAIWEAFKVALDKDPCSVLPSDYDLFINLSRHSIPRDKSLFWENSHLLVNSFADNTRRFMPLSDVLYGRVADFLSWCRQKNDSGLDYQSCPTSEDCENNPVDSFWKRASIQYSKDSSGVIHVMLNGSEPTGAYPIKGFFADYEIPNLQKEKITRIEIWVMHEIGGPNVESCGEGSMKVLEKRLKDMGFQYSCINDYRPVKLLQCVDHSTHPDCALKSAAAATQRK


Key:
[1] = biological target: T1, mouse CD38 (ACROBiosystems, CD8-M5223); assay: ELISA, antigen coated at 1 µg/mL, serial dilutions of IgM
[2] = biological target: T2, human CD157 protein (SinoBiological, …); assay: as above
[3] = biological target: T3, recombinant human CD38 extracellular domain protein (ACROBiosystems, Cat #CD8-H5224) (human, UniProt P28907 43-300); assay: ELISA, plate coated with 1 ug/mL recombinant human CD38, HRP anti-human kappa detection, chemiluminescence (RLU)
T3 construct: Bought protein; also called recombinant human CD38 protein
Procedure: The specificities of humanized CD38×CD3 IgM antibodies were measured in ELISA assays as follows. […] Plates were then washed with 0.05% PBS-polysorbate sold under the trademark TWEEN® (PBS-TWEEN®) and blocked with 2% BSA-PBS. After blocking, 100 μL of serial dilutions of humanized CD38×CD3 IgM antibodies and controls were added to the wells and incubated at room temperature for 2 hours. […] PRISM® using a 4-parameter logistic model.

| binding result [1] | binding result [2] | binding result [3] | Binder |
| --- | --- | --- | --- |
| no binding | no binding | binds | IgM E-2 (bispecific antibody, Constant regions not specified; also called humanized CD38 × CD3 IgM antibody) VH: QVQLVQSGAEVKKPGSSVKVSCKASGYTFTNHWIEWVRQAPGQGLEWMGDIFPGGGYTDYNEKFKGRVTITADESTSTAYMELSSLRSEDTAVYYCARGRDLAMDYWGQGTLVTVSS VL: DIQMTQSPSSLSASVGDRVTITCHASQNINVWLGWYQQKPGKAPKLLIYKASNLHTGVPSRFSGSGSGTDFTLTISSLQPEDFATYYCQQGQSYPYTFGQGTKVEIK not shown |
| no binding | no binding | binds | IgM E-4 (bispecific antibody, Constant regions not specified; also called humanized CD38 × CD3 IgM antibody) VH: QVQLVQSGAEVKKPGSSVKVSCKASGYTFTNHWIEWVRQAPGQGLEWMGDIFPGGGYTDYNEKFKGRVTITADESTSTAYMELSSLRSEDTAVYYCARGRDLAMDYWGQGTLVTVSS VL: DIQMTQSPSSLSASVGDRVTITCHASQNINVWLGWYQQKPGKAPKLLIYKASNLHTGVPSRFSGSGSGTDFTLTISSLQPEDFATYYCQQGQSYPYTFGQGTKVEIK not shown |
| no binding | no binding | binds | IgM B-2 (bispecific antibody, IgM and light chain constant regions not specified; also called humanized CD38 × CD3 IgM antibody) VH: QVQLVQSGAEVKKPGSSVKVSCKASGYTFTSYNMHWVRQAPGQGLEWMGYIYPGNGGTNYNQKFKGRVTITADESTSTAYMELSSLRSEDTAVYYCARGASMITTGAWFAYWGQGTLVTVSS VL: DIQMTQSPSSVSASVGDRVTITCRASESLDTYGNSFMYWYQQKPGKAPKLLIYLASSLESGVPSRFSGSGSGTDFTLTISSLQPEDFATYYCHQNHEDPWTFGQGTKVEIK not shown |
| no binding | no binding | binds | IgM B-4 (bispecific antibody, Constant regions not specified; also called humanized CD38 × CD3 IgM antibody) VH: QVQLVQSGAEVKKPGSSVKVSCKASGYTFTSYNMHWVRQAPGQGLEWMGYIYPGNGGTNYNQKFKGRVTITADESTSTAYMELSSLRSEDTAVYYCARGASMITTGAWFAYWGQGTLVTVSS VL: DIQMTQSPSSVSASVGDRVTITCRASESLDTYGNSFMYWYQQKPGKAPKLLIYLASSLESGVPSRFSGSGSGTDFTLTISSLQPEDFATYYCHQNHEDPWTFGQGTKVEIK not shown |
